Measurements published in PMC2063866 (The Journal of Cell Biology, 2006).

Biological target: Recombinant full-length WAVE2 tagged with GST at its COOH terminus (UniProt Q9Y6W5 1-498)
Assay: dual polarization interferometry

Chain of Recombinant full-length WAVE2 tagged with GST at its COOH terminus (Q9Y6W5 whole entry): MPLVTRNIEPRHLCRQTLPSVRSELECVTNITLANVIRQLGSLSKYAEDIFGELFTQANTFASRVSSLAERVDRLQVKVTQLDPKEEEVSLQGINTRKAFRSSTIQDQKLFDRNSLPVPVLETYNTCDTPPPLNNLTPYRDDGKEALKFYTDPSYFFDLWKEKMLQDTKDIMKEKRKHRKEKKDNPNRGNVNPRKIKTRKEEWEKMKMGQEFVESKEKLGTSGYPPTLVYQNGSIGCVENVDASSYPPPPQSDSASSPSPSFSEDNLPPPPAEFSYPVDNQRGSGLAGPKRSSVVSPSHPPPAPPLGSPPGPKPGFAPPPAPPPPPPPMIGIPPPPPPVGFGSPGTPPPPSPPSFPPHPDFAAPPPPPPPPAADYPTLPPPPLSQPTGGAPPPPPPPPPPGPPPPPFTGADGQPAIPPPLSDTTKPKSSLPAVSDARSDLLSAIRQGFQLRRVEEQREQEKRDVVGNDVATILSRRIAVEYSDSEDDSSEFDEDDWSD

B1: Coiled-coil region of Abi1 (aa 6–124) (domain or fragment)
chain: MLLEEEIPSGKRALIESYQNLTRVADYCENNYIQATDKRKALEETKAYTTQSLASVAYQINALANNVLQLLDIQASQLRRMESSINHISQTVDIHKEKVARREIGILTTNKNTSRTHKI
  Kd: 600 nM
